{
  "source": "the Human Domainome abundance scans (Beltran et al. 2025)",
  "note": "± gives the uncertainty stated by the source.",
  "data": [
    {"experiment": "abundance fitness (aPCA) (normalised: wild type 0, dead -1); higher = more abundant; growth selection in yeast, the domain comes from the species named", "conditions": "Homo sapiens", "values": [
      {"substance": "Gamma-crystallin D G100C, P07320", "abundance fitness": "-0.117 ± 0.096"},
      {"substance": "Gamma-crystallin D G100D, P07320", "abundance fitness": "0.069 ± 0.11"},
      {"substance": "Gamma-crystallin D G100E, P07320", "abundance fitness": "-0.069 ± 0.085"},
      {"substance": "Gamma-crystallin D G100F, P07320", "abundance fitness": "-0.779 ± 0.17"},
      {"substance": "Gamma-crystallin D G100H, P07320", "abundance fitness": "-0.561 ± 0.28"},
      {"substance": "Gamma-crystallin D G100I, P07320", "abundance fitness": "-0.826 ± 0.36"},
      {"substance": "Gamma-crystallin D G100K, P07320", "abundance fitness": "-0.325 ± 0.17"},
      {"substance": "Gamma-crystallin D G100L, P07320", "abundance fitness": "-0.266 ± 0.075"},
      {"substance": "Gamma-crystallin D G100M, P07320", "abundance fitness": "-0.356 ± 0.14"},
      {"substance": "Gamma-crystallin D G100Q, P07320", "abundance fitness": "-0.565 ± 0.17"},
      {"substance": "Gamma-crystallin D G100R, P07320", "abundance fitness": "-0.437 ± 0.073"},
      {"substance": "Gamma-crystallin D G100T, P07320", "abundance fitness": "-0.889 ± 0.45"},
      {"substance": "Gamma-crystallin D G100V, P07320", "abundance fitness": "-1.13 ± 0.16"},
      {"substance": "Gamma-crystallin D G100Y, P07320", "abundance fitness": "-0.839 ± 0.32"},
      {"substance": "Gamma-crystallin D I103E, P07320", "abundance fitness": "0.037 ± 0.13"},
      {"substance": "Gamma-crystallin D I103H, P07320", "abundance fitness": "-0.186 ± 0.088"},
      {"substance": "Gamma-crystallin D I103Q, P07320", "abundance fitness": "-0.03 ± 0.13"},
      {"substance": "Gamma-crystallin D I103R, P07320", "abundance fitness": "0.055 ± 0.064"},
      {"substance": "Gamma-crystallin D L112E, P07320", "abundance fitness": "-0.383 ± 0.045"}
    ]}
  ]
}
